Experimental data as given in IntAct's records for PubMed 31515488.
Values belong to the substance of their own block, whether it stands above or below them.

Experiments:
cof2_human CFL2 = cof2_human CFL2 (UniProt Q9Y281)
dest_human DSTN = biological target: T1, dest_human DSTN (UniProt P60981)
T1 sequence: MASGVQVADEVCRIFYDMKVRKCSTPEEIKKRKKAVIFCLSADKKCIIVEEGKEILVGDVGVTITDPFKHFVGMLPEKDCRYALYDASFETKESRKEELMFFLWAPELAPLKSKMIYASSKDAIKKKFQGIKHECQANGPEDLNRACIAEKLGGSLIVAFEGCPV

ntaq1_human NTAQ1 = ntaq1_human NTAQ1 (UniProt Q96HA8)
hxb5_human HOXB5 = hxb5_human HOXB5 (UniProt P09067)
ctbp2_human CTBP2 = ctbp2_human CTBP2 (UniProt P56545)
cry2_human CRY2 = biological target: T2, cry2_human CRY2 (UniProt Q49AN0)
T2 sequence: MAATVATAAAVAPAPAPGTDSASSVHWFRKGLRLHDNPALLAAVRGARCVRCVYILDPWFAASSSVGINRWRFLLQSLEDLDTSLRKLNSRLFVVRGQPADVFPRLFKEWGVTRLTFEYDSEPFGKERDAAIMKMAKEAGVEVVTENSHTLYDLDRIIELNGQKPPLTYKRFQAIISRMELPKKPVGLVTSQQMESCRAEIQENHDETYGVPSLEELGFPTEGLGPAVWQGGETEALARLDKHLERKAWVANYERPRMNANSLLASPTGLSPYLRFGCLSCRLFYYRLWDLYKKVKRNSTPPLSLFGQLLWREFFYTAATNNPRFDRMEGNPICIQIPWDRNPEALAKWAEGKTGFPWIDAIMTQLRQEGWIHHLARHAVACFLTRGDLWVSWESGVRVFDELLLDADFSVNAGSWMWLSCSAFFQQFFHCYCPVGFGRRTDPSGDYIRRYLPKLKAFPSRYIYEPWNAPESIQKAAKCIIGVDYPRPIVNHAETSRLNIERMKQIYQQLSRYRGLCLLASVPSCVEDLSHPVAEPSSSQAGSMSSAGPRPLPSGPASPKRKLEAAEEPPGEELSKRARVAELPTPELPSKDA

aapk1_human PRKAA1 = aapk1_human PRKAA1 (UniProt Q13131)
otx1_human OTX1 = otx1_human OTX1 (UniProt P32242)
gors2_human GORASP2 = gors2_human GORASP2 (UniProt Q9H8Y8)
dpyl5_human DPYSL5 = biological target: T3, dpyl5_human DPYSL5 (UniProt Q9BPU6)
T3 sequence: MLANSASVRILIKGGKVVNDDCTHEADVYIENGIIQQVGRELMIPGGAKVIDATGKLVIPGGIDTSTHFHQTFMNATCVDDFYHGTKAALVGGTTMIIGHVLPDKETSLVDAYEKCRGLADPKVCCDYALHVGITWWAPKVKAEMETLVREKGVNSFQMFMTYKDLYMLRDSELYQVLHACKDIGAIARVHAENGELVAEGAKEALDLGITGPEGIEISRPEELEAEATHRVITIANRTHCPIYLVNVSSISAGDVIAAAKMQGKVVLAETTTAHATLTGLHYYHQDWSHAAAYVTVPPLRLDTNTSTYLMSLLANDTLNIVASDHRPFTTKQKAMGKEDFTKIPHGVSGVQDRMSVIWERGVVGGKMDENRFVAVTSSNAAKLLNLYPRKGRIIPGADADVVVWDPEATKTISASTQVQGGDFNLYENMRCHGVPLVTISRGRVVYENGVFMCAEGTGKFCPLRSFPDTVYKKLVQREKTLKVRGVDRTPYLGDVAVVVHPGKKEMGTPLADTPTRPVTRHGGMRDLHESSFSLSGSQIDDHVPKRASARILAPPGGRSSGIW

dpyl3_human DPYSL3 = dpyl3_human DPYSL3 (UniProt Q14195)
ubql1_human UBQLN1 = ubql1_human UBQLN1 (UniProt Q9UMX0)
nasp_human NASP = nasp_human NASP (UniProt P49321)
nup50_human NUP50 = nup50_human NUP50 (UniProt Q9UKX7)
spopl_human SPOPL = spopl_human SPOPL (UniProt Q6IQ16)
an32b_human ANP32B = an32b_human ANP32B (UniProt Q92688)
lhx8_human LHX8 = lhx8_human LHX8 (UniProt Q68G74)
fhl3_human FHL3 = fhl3_human FHL3 (UniProt Q13643)
traf2_human TRAF2 = traf2_human TRAF2 (UniProt Q12933)
fxl18_human FBXL18 = fxl18_human FBXL18 (UniProt Q96ME1)
erep1_human ENTREP1 = erep1_human ENTREP1 (UniProt Q15884)
pdli7_human PDLIM7 = pdli7_human PDLIM7 (UniProt Q9NR12)
hnrl1_human HNRNPUL1 = hnrl1_human HNRNPUL1 (UniProt Q9BUJ2)
kcc2d_human CAMK2D = kcc2d_human CAMK2D (UniProt Q13557)
thap1_human THAP1 = thap1_human THAP1 (UniProt Q9NVV9)
mdfi_human MDFI = mdfi_human MDFI (UniProt Q99750)
rtraf_human RTRAF = rtraf_human RTRAF (UniProt Q9Y224)
zbt14_human ZBTB14 = biological target: T4, zbt14_human ZBTB14 (UniProt O43829)
T4 sequence: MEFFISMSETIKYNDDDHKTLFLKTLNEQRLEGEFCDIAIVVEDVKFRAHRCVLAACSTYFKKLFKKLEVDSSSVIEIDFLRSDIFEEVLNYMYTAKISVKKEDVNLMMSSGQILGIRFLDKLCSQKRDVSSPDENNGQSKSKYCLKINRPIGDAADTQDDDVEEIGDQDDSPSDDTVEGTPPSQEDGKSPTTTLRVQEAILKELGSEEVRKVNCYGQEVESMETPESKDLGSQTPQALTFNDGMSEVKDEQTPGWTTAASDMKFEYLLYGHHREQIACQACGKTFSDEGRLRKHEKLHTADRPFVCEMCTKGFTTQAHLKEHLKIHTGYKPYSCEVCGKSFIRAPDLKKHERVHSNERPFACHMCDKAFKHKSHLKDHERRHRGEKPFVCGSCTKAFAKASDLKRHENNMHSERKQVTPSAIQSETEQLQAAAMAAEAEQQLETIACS

tmm79_human TMEM79 = biological target: T5, tmm79_human TMEM79 (UniProt Q9BSE2)
T5 sequence: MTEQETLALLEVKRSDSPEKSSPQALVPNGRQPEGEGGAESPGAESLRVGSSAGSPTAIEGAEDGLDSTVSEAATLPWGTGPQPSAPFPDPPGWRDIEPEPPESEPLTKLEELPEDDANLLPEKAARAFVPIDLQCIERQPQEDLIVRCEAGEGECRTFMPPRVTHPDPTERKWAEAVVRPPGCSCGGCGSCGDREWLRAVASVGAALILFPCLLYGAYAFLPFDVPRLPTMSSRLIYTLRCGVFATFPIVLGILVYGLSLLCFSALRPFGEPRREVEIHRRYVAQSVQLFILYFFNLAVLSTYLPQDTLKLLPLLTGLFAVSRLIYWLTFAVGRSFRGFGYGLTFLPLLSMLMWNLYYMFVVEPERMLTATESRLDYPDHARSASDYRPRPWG

cxcl9_human CXCL9 = biological target: T6, cxcl9_human CXCL9 (UniProt Q07325)
T6 sequence: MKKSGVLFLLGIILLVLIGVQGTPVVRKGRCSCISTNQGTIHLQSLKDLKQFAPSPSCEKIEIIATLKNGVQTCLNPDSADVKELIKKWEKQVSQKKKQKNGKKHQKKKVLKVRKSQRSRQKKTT

efs_human EFS = efs_human EFS (UniProt O43281)
fund1_human FUNDC1 = fund1_human FUNDC1 (UniProt Q8IVP5)
zn446_human ZNF446 [1] = biological target: zn446_human ZNF446 (UniProt Q9NWS9)
zn446_human ZNF446 [2] = biological target: zn446_human ZNF446 (UniProt Q9NWS9); remark: listed apart in the source
trim1_human MID2 [3] = biological target: trim1_human MID2 (UniProt Q9UJV3)
dzip3_human DZIP3 = dzip3_human DZIP3 (UniProt Q86Y13)
rbtn2_human LMO2 = rbtn2_human LMO2 (UniProt P25791)
zn446_human ZNF446 [4] = biological target: zn446_human ZNF446 (UniProt Q9NWS9); remark: listed apart in the source
kr101_human KRTAP10-1 = kr101_human KRTAP10-1 (UniProt P60331)
trim1_human MID2 [5] = biological target: trim1_human MID2 (UniProt Q9UJV3); remark: listed apart in the source
mtus2_human MTUS2 = mtus2_human MTUS2 (UniProt Q5JR59)

- effect of a mutation on the interaction (cof2_human CFL2): with no effect
- effect of a mutation on the interaction (dest_human DSTN): disrupting interaction strength
- effect of a mutation on the interaction (ntaq1_human NTAQ1): disrupting interaction strength
Substance: Actin, cytoplasmic 1 (Homo sapiens) (from UniProt P60709) E364K

- effect of a mutation on the interaction (hxb5_human HOXB5): with no effect
- effect of a mutation on the interaction (ctbp2_human CTBP2): with no effect
- effect of a mutation on the interaction (cry2_human CRY2): with no effect
- effect of a mutation on the interaction (aapk1_human PRKAA1): with no effect
Substance: C-terminal-binding protein 1 (Homo sapiens) (from UniProt Q13363) A436T

- effect of a mutation on the interaction (otx1_human OTX1): with no effect
Substance: Cartilage oligomeric matrix protein (Homo sapiens), P49747 N386D

- effect of a mutation on the interaction (gors2_human GORASP2): with no effect
- effect of a mutation on the interaction (dpyl5_human DPYSL5): with no effect
- effect of a mutation on the interaction (dpyl3_human DPYSL3): with no effect
Substance: Dihydropyrimidinase-related protein 2 (Homo sapiens) (from UniProt Q16555) A267S

- effect of a mutation on the interaction (ubql1_human UBQLN1): with no effect
Substance: Frizzled-7 (Homo sapiens) (from UniProt O75084) P285S

- effect of a mutation on the interaction (nasp_human NASP): with no effect
Substance: Histone H3.1 (Homo sapiens) (from UniProt P68431) A128G

- effect of a mutation on the interaction (nup50_human NUP50): with no effect
- effect of a mutation on the interaction (spopl_human SPOPL): with no effect
- effect of a mutation on the interaction (an32b_human ANP32B): with no effect
Substance: Importin subunit alpha-6 (Homo sapiens), O15131 F48L

- effect of a mutation on the interaction (lhx8_human LHX8): disrupting interaction strength
- effect of a mutation on the interaction (fhl3_human FHL3): disrupting interaction strength
- effect of a mutation on the interaction (traf2_human TRAF2): disrupting interaction strength
Substance: Isoform 1 of Krueppel-like factor 3 (Homo sapiens), P57682-1 C322F

- effect of a mutation on the interaction (fxl18_human FBXL18): with no effect
- effect of a mutation on the interaction (erep1_human ENTREP1): with no effect
- effect of a mutation on the interaction (pdli7_human PDLIM7): with no effect
- effect of a mutation on the interaction (hnrl1_human HNRNPUL1): with no effect
Substance: Isoform 1 of NEDD4-like E3 ubiquitin-protein ligase WWP2 (Homo sapiens), O00308-1 V717M

- effect of a mutation on the interaction (kcc2d_human CAMK2D): with no effect
- effect of a mutation on the interaction (thap1_human THAP1): with no effect
Substance: Large ribosomal subunit protein uL11m (Homo sapiens) (from UniProt Q9Y3B7) R142C

- effect of a mutation on the interaction (mdfi_human MDFI): with no effect
Substance: Nuclear transition protein 2 (Homo sapiens), Q05952 R131W

- effect of a mutation on the interaction (rtraf_human RTRAF): with no effect
Substance: Protein FAM98A (Homo sapiens), Q8NCA5 S283G

- effect of a mutation on the interaction (zbt14_human ZBTB14): with no effect
Substance: Small ribosomal subunit protein eS7 (Homo sapiens) (from UniProt P62081) R106Q

- effect of a mutation on the interaction (tmm79_human TMEM79): with no effect
- effect of a mutation on the interaction (cxcl9_human CXCL9): with no effect
Substance: Surfactant protein C (Homo sapiens) (from UniProt P11686) R167Q

- effect of a mutation on the interaction (efs_human EFS): with no effect
Substance: Tyrosine-protein kinase Fyn (Homo sapiens), P06241-3 V410M

- effect of a mutation on the interaction (fund1_human FUNDC1): with no effect
Substance: Tyrosine-protein kinase Yes (Homo sapiens), P07947 V52L

- effect of a mutation on the interaction (zn446_human ZNF446 [1]): with no effect
Substance: Zinc finger and SCAN domain-containing protein 16 (Homo sapiens), Q9H4T2 R137Q

- effect of a mutation on the interaction (zn446_human ZNF446 [2]): with no effect
- effect of a mutation on the interaction (trim1_human MID2 [3]): with no effect
- effect of a mutation on the interaction (dzip3_human DZIP3): with no effect
- effect of a mutation on the interaction (rbtn2_human LMO2): with no effect
Substance: Zinc finger protein 24 (Homo sapiens), P17028 T85M

- effect of a mutation on the interaction (zn446_human ZNF446 [4]): with no effect
Substance: Zinc finger protein 397 (Homo sapiens), Q8NF99 P169S

- effect of a mutation on the interaction (kr101_human KRTAP10-1): with no effect
Substance: Zinc finger protein 559 (Homo sapiens), Q9BR84 L6W

- effect of a mutation on the interaction (trim1_human MID2 [5]): with no effect
- effect of a mutation on the interaction (mtus2_human MTUS2): with no effect
Substance: Zinc finger protein 785 (Homo sapiens), A8K8V0 R212C
